Test results taken from patent publication US20110311550A1 (Scripps Research, published 2011).
Positions count from the first letter of the chain named.

B1: Fab N1 (Fab, V domains shown)
VH: VQLLEQSGPEVKKPGDSLRISCKMSGDSLVTTWIGWVRQKPGQGLEWMGIINPGDSSTNIYPGDSATRYGPSFQGQVTISIDKSTSTAYLQWNAVKPSDTGIYYCARHVPVPISGTFLWREREMHDFGYFDDWGQGTLVIVSS
VL: ELTQSPGTLSLSPGERATLSCRASQSVSSSYLAWYQQKPGQAPRLLIYGASNRAAGIPDRFSGSGSGADFTLTISRLEPEDFAVYYCQQYGSSLITFGQGTRLEIKR
notes: Soluble Fab
B2: Fab S2 (Fab, V domains shown)
VH: VQLLEQSGAEVKKPGASVKVSCTASGYIFTSFGISWVRQAPGQGLEWMGRIDTYNGKTNYAQKLQGRVTMTTDTYTSTAYMELRSLTSDDTAVYYCARDDCRSSTCYLAQHNWQAYYHDSWGQGTLVTVSS
VL: B1 VL with G7A, S30R, Y31F, N52S, A55T, A68T, L94P, I95Q, R102K, L103V
B3: Fab J5 (Fab, V domains shown)
VH: VQLLEQSGAEVKKPGSSVTVSCKASGGTVSSYPITWVRQAPGQGLEWMGGTIPVFGAPKYAPKFQGRVTITADESTSTAYMELRSLRSDDTAMYYCAIVGMRGITLVGGLAMNWLDPWGQGTLVIVSS
VL: B1 VL with S30N, N52S, A55T, A68T, T73S, L94P, I95L, Q99G, R102K, L103V
B4: Fab N2 (Fab, V domains shown)
VH: B1 VH with A94T
VL: ELTQSPGTLSLFPGERATLSCRASQSILGRYLAWYQQKGGRAPRLLIFGASKRATGIPDRFSGSGSGTDFTLTIGRLEPEDFAVYYCQHYGSSITFGQGTRLDIKR
notes: Soluble Fab
B5: MAb AR3B (antibody, V domains shown)
VH: LEQSGPEVKKPGSSVKVSCKDSGDTFNEPVTWVRQAPGQGLEWIGGIIPAFGVTKYAQKFQGRVIISADASTATAYLELSSLRSEDTAVYYCAKVGLRGIVMVGGLAMNWLDPWGQGTQVTVSS
VL: not shown
B6: Fab N3 (Fab, V domains shown)
VH: VQLLEQSGAEVKKPGDSLRISCKMSGDSLVWIGWVRQKPGQGLEWMGIINPGDSATNIYPGDSDTRYGPSFQGQVTISIDKSTSTAYLQWNAVKASDTGIYYCARHVPVPISGTFLWREREMHDLGYFDDWGQGTLVIVSS
VL: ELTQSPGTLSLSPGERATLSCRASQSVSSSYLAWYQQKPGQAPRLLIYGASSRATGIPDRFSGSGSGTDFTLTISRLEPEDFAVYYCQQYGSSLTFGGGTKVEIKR
notes: Soluble Fab
B7: Fab P1 (Fab, V domains shown)
VH: EVQLLESGGGVVQPGGSLRLSCAASGFTFTSFTMHWVRQAPGKGLEWVALISHDGSNKDYADSVRGRFTVSRDNSKKMVYLQMSSLRPDDAAVYYCARGGPAYYTYSDTLTGYHNVVGDYWGQGTLVTVSS
VL: ELTQSPGTLSLSPGERATLSCRASQVRGFLAWFQQKPGQAPRLLIYGASNRAPGIPDRFSGSGSGTDFTLTISRLEPEDFAVYYCQQYGDSPPITFGQGTRLEIKR
notes: Soluble Fab
B8: Fab P1a (Fab, V domains shown)
VH: B7 VH
VL: ELTQSPGTLSLSPGERATLSCRTSQSVSSTYLAWYQQKPGQPPRLLIYGASNRAPGIPDRFSGSGSGTDFTLTISRLEPEDFAVYYCQQYGDSPPITFGQGTRLDIKR
B9: Fab E3 (Fab, V domains shown)
VH: VGLLEQSGAELKKPGSSVKVSCKPSDGTFRAYTLSWVRQAPGQALEWMGRIMPTVGITNYARKFQGRVTISADMSTATAYMELSSLRSDDTAIYYCAKGPYVGLGEGFSEWGQGTLVTVSS
VL: ELVLTQSPLSLPVTLGQPASISCRSTQSLVYSDGNTYLNWFHQRPGQPPRRLIYKVSNRDSGVPERFSGSGSGTDFALKISRVEADDVGIYYCMQGAHWPPTFGGGTKVEISR
B10: Fab L5 (Fab, V domains shown)
VH: VQLLEQSGTEVKKPGSSVKVSCKVPGDTFRSYVITWVRQAPGQGLEWLGGILPFFGTTNLAQKFQGRVTLTADESTTTAYMELSSLRAEDTAVYYCAKAGDLAFGGVIAGGVPHLSHFDPWGQGTLVTVSS
VL: ELTQSPGTLSLSPGERATLSCRASQSVRSNYLAWYQQKPGQAPRLLIYGASSRATGIPDRFSGSGSGTDFTLTISRLEPEDFAMYYCQQYGSSMCSFGQGTKVEIKR
B11: Fab L6 (Fab, V domains shown)
VH: B10 VH with A40S, A88S, S131A
VL: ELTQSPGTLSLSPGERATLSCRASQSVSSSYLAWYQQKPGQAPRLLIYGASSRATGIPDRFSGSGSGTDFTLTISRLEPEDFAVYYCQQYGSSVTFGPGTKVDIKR
B12: Fab U1 (Fab, V domains shown)
VH: VQLLEQSGPEVKRPGTSVKMSCKISGGASITQAMSWVRQAPGQGLEWMGGITPIFGTVNYAQKILGRVTITADEDTVSLELSSLKSEDTAVYYCAREVNLKTWNLAHPNVFDVWGQGTMLTVSS
VL: ELTQSPSSLSASVGDRVTITCRASQSISSFLNWYQQKPGKAPKLLIYAASSLQSGVPPRFSGSGSGTDFTLTISSLQPEDFATYYCQQSYSTPRTFGQGTKLEIKR
B13: Fab U3 (Fab, V domains shown)
VH: VQLLEQSGAEVKRPGSSVKISCKNSGGTFITQAMSWVRQAPGQGLEWMGGIIPIFGTVNYAQKILGRVTITADEDTVSMELSSLGFEDTAVYYCAREVNLKSWNLAHPDVFDIWGQGTLVTVSS
VL: B12 VL with S28R, F30Y, K43N, A48S, S51N, P58S, S61R, S91R, L102V, I104S
B14: Fab U2 (Fab, V domains shown)
VH: VQLLEQSGAEVKRPGSSVKLSCKNSGGTFITQAMSWVRQAPGQGLEWMGGIIPVFGTVNYAQNILDRATATADEDTFSLELRGLRLEDTAVYYCAREVNLKTWNLARPDVFDIWGPGTLVTVSS
VL: ELTQSPSSLSASIGDRVTIPCRASQSILNHLNWYQQKPGQPPKLLIFAASNLQSGVPSRFSGSGSGTDFTLTISSLQTEDFATYYCQQSYSTPRTFGQGTKVEVKR
B15: Fab P3 (Fab, V domains shown)
VH: EVQLLESGGGVVQPGKSLRLSCAVSGFTLNTFAMHWVRQVPGKGLEWVALTSHDGSRQDYADSVRGRFTISRDNSKSMVFLLMNSLRAEDTAVYYCVRGGPAYYTYNDVLTGYAYVVGDFWGQGTLVTVSS
VL: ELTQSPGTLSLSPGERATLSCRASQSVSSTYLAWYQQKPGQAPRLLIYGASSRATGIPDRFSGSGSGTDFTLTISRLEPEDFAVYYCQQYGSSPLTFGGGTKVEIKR
B16: Fab T1 (Fab, V domains shown)
VH: EVQLLESGGGLVQPGGSLRLSCAASGFTFSRFWMHWVRQAPGKGLVWVARINSDGSSTTYADSVKGRFTISRDNAKNTLYLQMNSLRDEDTAVYFCARGGDSSSPYYYPMDVWGQGTTVAVSS
VL: not shown
B17: MAb AR1B (IgG1 from Fab D1) (antibody, V domains shown)
VH: LESGGGLVQPGGSLRLSCEASGYYFSSFAMSWVRQTPGKGLEWVSSIAGGTLGRTSYRDSVKGRFTISRDNSKNTVFLHMNNLRPEDTAVYYCAKDPLLFAGGPNWFDHWGQGTLVTVSS
VL: not shown
B18: Fab S1 (Fab, V domains shown)
VH: B2 VH with A16T
VL: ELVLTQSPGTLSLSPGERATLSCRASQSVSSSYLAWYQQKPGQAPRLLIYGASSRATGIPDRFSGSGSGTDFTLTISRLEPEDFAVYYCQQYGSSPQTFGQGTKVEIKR
B19: Fab O1 (Fab, V domains shown)
VH: VQLLEQSGAEVKKAGESVRLSCKASGYRFGDYWIAWVRQLPGRAPEWMGIIYPDDSDTKYSPSFQGQVTISADKSIRTTFLDWGSLKASDTAIYYCARGCLGAKCYYPHYYYGLDVWGQGTTVIVSS
VL: ELTQSPSSLSASVGDRVTITCRATQGIDNYLNWYQQKPGKPPRLLIYGASSLQSGVPSRFSGGGSGTHFTLTITNLQPEDFATYYCQQSYSTPPETFGQGTKVEIKR
notes: Soluble Fab
B20: MAb AR2A (IgG1 from Fab G) (antibody, V domains shown)
VH: LEQSGAEMKKPGASLKVSCKTSGYTFDDYGVTWVRQAPGQGLEWMGWISAYSGNTFYARKFQGRVTMTTDPSTRTAYMELRSLRSDDTAVYFCARDRGLAINGVVFPYFGLDVWGQGTTVTVSS
VL: ELTQSPVSLPVTPGEPASISCRSSQSLLHSNGNHYLDWYLQKPGQSPQLLMYLGSNRASGVPDRFSGSGSGTDFTLKISRVEAEDVGVYYCMQGLQTPWTFGQGTKVEIKR
notes: also called G IgG

What was measured:
[1] = biological target: T1, HCV E1E2 complex, isolate H77 (genotype 1a) (hepatitis C virus genotype 1a, isolate …, UniProt P27958 192-383; P27958 384-746); test: Fab ELISA on unmasked E1E2
[2] = biological target: T1, HCV E1E2 complex, isolate H77 (genotype …); test: Fab screen after panning on E1E2 (H77)
[3] = biological target: E1E2 (Env) of HCV isolate H (genotype 1a) on HCVpp (hepatitis C virus, isolate H); test: cell-based or functional assay
[4] = biological target: E1E2 (Env) of HCV isolate OH8 (genotype 1b) on HCVpp (hepatitis C virus, isolate OH8); test: cell-based or functional assay
[5] = biological target: E1E2 (Env) of HCV isolate UKN1B12.16 (genotype 1b) on HCVpp (hepatitis C virus, isolate UKN1B12.16); test: cell-based or functional assay
[6] = biological target: E1E2 (Env) of HCV isolate J6 (genotype 2a) on HCVpp (hepatitis C virus, isolate J6, UniProt P26660 192-383; P26660 384-750); test: cell-based or functional assay
[7] = biological target: E1E2 (Env) of HCV isolate UKN2A1.2 (genotype 2a) on HCVpp (hepatitis C virus, isolate UKN2A1.2); test: cell-based or functional assay
[8] = biological target: E1E2 (Env) of HCV isolate UKN2B1.1 (genotype 2b) on HCVpp (hepatitis C virus, isolate UKN2B1.1); test: cell-based or functional assay
[9] = biological target: E1E2 (Env) of HCV isolate UKN4.21.16 (genotype 4) on HCVpp (hepatitis C virus, isolate UKN4.21.16); test: cell-based or functional assay
[10] = biological target: E1E2 (Env) of HCV isolate UKN5.15.7 (genotype 5) on HCVpp (hepatitis C virus, isolate UKN5.15.7); test: cell-based or functional assay
[11] = biological target: VSV (control pseudotype virus envelope); test: cell-based or functional assay
[12] = biological target: T1, HCV E1E2 complex, isolate H77 (genotype …); test: apparent affinity: half-maximal binding, ELISA on lectin-captured E1E2
[13] = biological target: HCV E1E2 complex, isolate HCV-1 (genotype 1a), vaccinia-expressed (hepatitis C virus genotype 1a, isolate …, UniProt P26664 192-383; P26664 384-746); test: as above

Binder	binding result [1]	binding result [2]	also measured
B1	binds	–	–
B2	–	binds	–
B3	–	binds	–
B4	binds	–	–
B5	–	–	Neutralizing activity (IC50) on HCVpp [3]: 1 µg/mL; Neutralizing activity (IC50) on HCVpp [4]: 5 µg/mL; Neutralizing activity (IC50) on HCVpp [5]: 1 µg/mL; Neutralizing activity (IC50) on HCVpp [6]: 10 µg/mL; Neutralizing activity (IC50) on HCVpp [7]: 5 µg/mL; Neutralizing activity (IC50) on HCVpp [8]: 10 µg/mL; Neutralizing activity (IC50) on HCVpp [9]: 1 µg/mL; Neutralizing activity (IC50) on HCVpp [10]: 1 µg/mL; Neutralizing activity (IC50) on control pseudotype virus [11]: > 50 µg/mL
B6	binds	–	–
B7	binds	–	–
B8	binds	–	–
B9	–	binds	–
B10	–	binds	–
B11	–	binds	–
B12	binds	–	–
B13	–	binds	–
B14	–	binds	–
B15	binds	–	–
B16	binds	–	–
B17	–	–	EC50 [12]: 0.6 nM; EC50 [13]: 0.4 nM
B18	binds	–	–
B19	binds	–	–
B20	–	–	EC50 [12]: 1.6 nM; EC50 [13]: 3.1 nM
